T1: human IL-11Rα, FLAG-tagged, expressed at the surface of transiently transfected cells (human, UniProt Q14626 23-422)
T1 construct: whole, on cells; also called IL-11Rα expressing HEK cells; FLAG-tagged human IL-11Rα; not shown: tag
T1 sequence (looked up): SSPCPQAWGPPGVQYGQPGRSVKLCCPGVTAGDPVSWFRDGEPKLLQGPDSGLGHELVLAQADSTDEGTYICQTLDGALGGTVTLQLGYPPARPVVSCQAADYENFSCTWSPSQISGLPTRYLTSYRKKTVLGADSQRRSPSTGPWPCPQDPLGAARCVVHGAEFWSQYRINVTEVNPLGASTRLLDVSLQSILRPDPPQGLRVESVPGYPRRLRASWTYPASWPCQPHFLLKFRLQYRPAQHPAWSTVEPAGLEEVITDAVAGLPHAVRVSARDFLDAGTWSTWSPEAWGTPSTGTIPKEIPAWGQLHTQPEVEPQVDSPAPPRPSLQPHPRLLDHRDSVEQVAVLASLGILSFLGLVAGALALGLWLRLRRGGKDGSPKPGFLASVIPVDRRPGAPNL

B1: BSO-5E5 (antibody, V domains shown)
VH: DVQLQESGPGLVKPSQSLSLTCSVTGYSITSDYYWNWIRQFPGNKLEWMGYISYDSSNNYNPSLKNRISITRDTSKNQFFLKLNSVTTEDTATYYCASVGYYYVSDWYFDVWGTGTTVTVSS
VL: DIVMSQSPSSLPVSVGENVTMSCKSSQSLLYGSNQKNYLAWYQQKPGQSPKLLIYWASTRESGVPDRFTGSGSGTDFTLTISSVKAEDLAVYFCQQYYSYPRTFGGGTKLEIK
notes: Mouse monoclonal from hybridoma; also called RA5
B2: BSO-9A7 (antibody, V domains shown)
VH: QVQLQQPGAELVRPGSSVKLSCKASGYTFTNYWMHWLKQRPVQGLEWIGNIGPSDSKTHYNQKFKDKATLTVDKSSSTAYMQLNSLTSEDSAVYYCARGDYVLFTYWGQGTLVTVSA
VL: DIVLTQSPATLSMTPGDSVSLSCRASQSISNNLHWYQQKSHESPRLLIKYASQSISGIPSRFSGSGSGTDFTLSFNSVETEDFGVYFCQQRYSWPLTFGAGTKLEMK
notes: Mouse monoclonal from hybridoma; also called RA7
B3: BSO-4G3 (antibody, V domains shown)
VH: EVQLVESGGGLVKPGGSLKLSCAASGFTFSTYAMSWVRQTPEKRLEWVAAIKSNGGSTYYPDTVKDRFTISRDNAKNTLYLQMSSLRPEDTALYYCAHGLLFAHWGQGTLVTVSA
VL: DIVLTQSPASLAVSLGQSVTISCRASESVEYSGTTLMQWYQQKPGQPPKLLIYGASNVESGVPARFSGSGSGTDFSLNIHPVEEDDIAMYFCQQSRKVPYTFGSGTKLEIK
notes: Mouse monoclonal from hybridoma
B4: BSO-10D11 (antibody, V domains shown)
VH: QVQLQQSGTELVRPGTSVKMSCKAAGYTFTDYWIGWIKQRPGHGLEWIGDIFPGGDYTKCSERFKGKAKLTADTSSSTAYMQLSRLTSEDSAIYYCARRSTTIRFGAMDNWGQGTSVTVSS
VL: DIQMTQSPSSLSASLGERVSLTCRASQEISAYLSWLQQKPDGTIKRLIYSTSTLDSGVPKRFSGSRSGSDYSLTISSLESEDFADYFCLQYASSPLTFGAGTKLELK
notes: as for B3
B5: BSO-7G9 (antibody, V domains shown)
VH: QVQLQQPGAELVKPGASVRLSCKASGYTFTSYWMHWVKQRPGQGLEWIGMIHPNSGYTNYNEKFKIKATLTVDKSSSTAHMQLSSLTSEDSAVYHCARGGYDGSYGPWFAYWGQGTLVTVSA
VL: DVVMTQTPLSLPVSLGDQASISCRSSQSLVHSNGNTYLHWYLQKPGQSPKLLIYKVSNRFSGVPDRFSGSGSGTDFTLKISRVEAEDLGVYFCSQSTHVPLTFGAGTKLELK
notes: as for B3
B6: BSO-13B10 (antibody, V domains shown)
VH: QVQLKESGPGLVAPSQSLSITCTVSGFSLTSFSISWVRQPPGKGLEWLGGIWTGGGTNYNSALKPRLSISKDNSKSQVFLKMNSLQTDDTARYYCARNSNYPSGFAYWGQGTLVTVSA
VL: DIVMTQSQKFMSTSVGDRVSVTCKASQNVGSNVAWYQQKAGQSPKALIYSASYRYSGVPDRFTGSGSGTDFTLTISNVQSEDLAEYFCQQYNSYPLTFGAGTKLELK
notes: Mouse monoclonal from hybridoma; also called RA9
B7: BSO-2E5 (antibody, V domains shown)
VH: QGQVQQSGAELVKPGASVKLSCKTSGFTFSTSYISWLKQKPRQSLEWIAWIYAGTGSTSYNQKFTGKAQLTVDTSSSTAYMQLSSLTSEDSAIYYCARHWAYWGQGTLVTVSA
VL: DIQMTQSPSSLSASLGERVSLTCRASQDIGSSLNWLQQEPDGTIKRLIYATASLESGVPKRFSGSRSGSDYSLTISRLESEDFVDYYCQQYASSPPTFGAGTKLELK
notes: Mouse monoclonal from hybridoma; also called RA3

Target: T1, human IL-11Rα, FLAG-tagged, expressed …
Assay: same assay; percent relative to the positive control anti-FLAG antibody (100%)
Protocol: (§1) Briefly, labelled control cells (not expressing IL-11Rα at the cell surface) and unlabelled target cells expressing human IL-11Rα at their surface (following transient transfection with a plasmid encoding a FLAG-tagged human IL-11Rα) were mixed together with the cell culture supernatant (containing mouse-anti-IL-11Rα antibodies) and secondary detection antibodies (fluorescently-labelled anti-mouse IgG antibody).
(§2) The cells were then analysed using the HTFC Screening System (iQue) for the two labels (i.e. the cell label and the label on the secondary antibody). Detection of the secondary antibody on the unlabelled, IL-11Rα expressing cells indicated ability of the mouse-anti-IL-11Rα antibodies to bind to IL-11Rα. Detection of the secondary antibody on the labelled, control cells indicated cross-reactivity of the mouse-anti-IL-11Rα antibodies for target other than IL-11Rα.
As a positive control condition, labelled and unlabelled cells were incubated with a mouse anti-FLAG tag antibody as the primary antibody.

% positive [%]	Binder
28	B1
111	B2
30	B3
42	B4
59	B5
35	B6
30	B7

Target: T1, human IL-11Rα, FLAG-tagged, expressed …
Assay: flow cytometry of subcloned hybridoma supernatant on cells transfected with FLAG-tagged human IL-11Rα (sheet header: 'pB1-IL11-hum.FL', 'flow cytometry (Attunes)'; text: iQue mix-and-measure, anti-mouse IgG secondary)
Protocol: The mouse hybridomas producing anti-human IL-11Rα antibodies were sub-cloned, and cell culture supernatant from the subcloned hybridomas was analysed by “mix-and-measure” iQue assay for (i) ability to bind to human IL-11Rα, and (ii) cross reactivity for antigen other than IL-11Rα.
as §1, §2

GMFI	Binder
8780	B1
34800	B2
9300	B3
13100	B4
18600	B5
10900	B6
9540	B7

— patent publication US20200207847A1 (SINGAPORE HEALTH SERVICES PTE, published 2020)
